Data from patent US20230140293A1.

Legend:
CH505 M11 gp120 (HIV-1) = assay: ELISA, gp120 on plate
CH505 M5 gp120 (HIV-1) = assay: ELISA, gp120 on plate
[1] = target: CH505 transmitted/founder (TF) gp120 (HIV-1); assay: ELISA, gp120 on plate
[2] = target: CH505 w020.14 gp120 (HIV-1); assay: ELISA, gp120 on plate
[3] = target: CH505 w030.28 gp120 (HIV-1); assay: ELISA, gp120 on plate
[4] = target: CH0505.w4.3 Env, Env-pseudotyped virus produced in 293T cells (HIV-1); assay: cell-based or functional assay
[5] = target: CH0505TF Env, Env-pseudotyped virus produced in 293T cells (HIV-1); assay: cell-based or functional assay
[6] = target: CH0505TF Env, pseudotyped virus produced in 293S GnTI- cells (HIV-1); assay: cell-based or functional assay
[7] = target: CH0505TF.G458Y Env, Env-pseudotyped virus produced in 293T cells (HIV-1); assay: cell-based or functional assay
[8] = target: CH0505TF.G458Y Env, pseudotyped virus produced in 293S GnTI- cells (HIV-1); assay: cell-based or functional assay
[9] = target: CH0505TF.gly3.197 Env, Env-pseudotyped virus produced in 293T cells (HIV-1); assay: cell-based or functional assay
[10] = target: CH0505TF.gly3.197 Env, pseudotyped virus produced in 293S GnTI- cells (HIV-1); assay: cell-based or functional assay
[11] = target: CH0505TF.gly3.276 Env, Env-pseudotyped virus produced in 293T cells (HIV-1); assay: cell-based or functional assay
[12] = target: CH0505TF.gly3.276 Env, pseudotyped virus produced in 293S GnTI- cells (HIV-1); assay: cell-based or functional assay
[13] = target: CH0505TF.gly3.461 Env, Env-pseudotyped virus produced in 293T cells (HIV-1); assay: cell-based or functional assay
[14] = target: CH0505TF.gly3.461 Env, pseudotyped virus produced in 293S GnTI- cells (HIV-1); assay: cell-based or functional assay
[15] = target: CH0505TF.gly4 Env, Env-pseudotyped virus produced in 293T cells (HIV-1); assay: cell-based or functional assay
[16] = target: CH0505TF.gly4 Env, pseudotyped virus produced in 293S GnTI- cells (HIV-1); assay: cell-based or functional assay
[17] = target: HIV-1 426c.DM (N460D/N463D) Env on Env-pseudotyped virus produced in 293T cells (HIV-1); assay: cell-based or functional assay
[18] = target: HIV-1 426c.DM (N460D/N463D) Env on Env-pseudotyped virus produced in 293s/GnTI-/- cells (Man5-enrichment) (HIV-1); assay: cell-based or functional assay
[19] = target: HIV-1 426c.SM (N276D) Env on Env-pseudotyped virus produced in 293T cells (HIV-1); assay: cell-based or functional assay
[20] = target: HIV-1 426c.SM (N276D) Env on Env-pseudotyped virus produced in 293s/GnTI-/- cells (Man5-enrichment) (HIV-1); assay: cell-based or functional assay
[21] = target: HIV-1 426c.TM (N276D/N460D/N463D) Env on Env-pseudotyped virus produced in 293T cells (HIV-1); assay: cell-based or functional assay
[22] = target: HIV-1 426c.TM (N276D/N460D/N463D) Env on Env-pseudotyped virus produced in 293s/GnTI-/- cells (Man5-enrichment) (HIV-1); assay: cell-based or functional assay
[23] = target: HIV-1 Env 426c, Env-pseudotyped virus produced in 293S GnTI- cells (Man5-enriched) (HIV-1 clade C strain 426c); assay: cell-based or functional assay
[24] = target: HIV-1 Env 426c, Env-pseudotyped virus produced in 293T cells (HIV-1 clade C strain 426c); assay: cell-based or functional assay
[25] = target: HIV-1 Env 426c.DM (N460D.N463D), Env-pseudotyped virus produced in 293S GnTI- cells (Man5-enriched) (HIV-1 clade C strain 426c); assay: cell-based or functional assay
[26] = target: HIV-1 Env 426c.DM (N460D.N463D), Env-pseudotyped virus produced in 293T cells (HIV-1 clade C strain 426c); assay: cell-based or functional assay
[27] = target: HIV-1 Env 426c.SM (N276D), Env-pseudotyped virus produced in 293S GnTI- cells (Man5-enriched) (HIV-1 clade C strain 426c); assay: cell-based or functional assay
[28] = target: HIV-1 Env 426c.SM (N276D), Env-pseudotyped virus produced in 293T cells (HIV-1 clade C strain 426c); assay: cell-based or functional assay
[29] = target: HIV-1 Env 426c.TM (N276D.N460D.N463D), Env-pseudotyped virus produced in 293S GnTI- cells (Man5-enriched) (HIV-1 clade C strain 426c); assay: cell-based or functional assay
[30] = target: HIV-1 Env 426c.TM (N276D.N460D.N463D), Env-pseudotyped virus produced in 293T cells (HIV-1 clade C strain 426c); assay: cell-based or functional assay
[31] = target: HIV-1 Env 426c.TM4 (S278R.G471S.N460D.N463D), Env-pseudotyped virus produced in 293S GnTI- cells (Man5-enriched) (HIV-1 clade C strain 426c); assay: cell-based or functional assay
[32] = target: HIV-1 Env 426c.TM4 (S278R.G471S.N460D.N463D), Env-pseudotyped virus produced in 293T cells (HIV-1 clade C strain 426c); assay: cell-based or functional assay
[33] = target: HIV-1 clade C strain 426c Env on Env-pseudotyped virus produced in 293T cells (HIV-1); assay: cell-based or functional assay
[34] = target: HIV-1 clade C strain 426c Env on Env-pseudotyped virus produced in 293s/GnTI-/- cells (Man5-enrichment) (HIV-1); assay: cell-based or functional assay
[35] = target: CH0505TF Env, Env-pseudotyped virus produced in 293S GnTI- cells (Man5-enriched) (HIV-1); assay: cell-based or functional assay
[36] = target: CH0505TF.G458Y Env, Env-pseudotyped virus produced in 293S GnTI- cells (Man5-enriched) (HIV-1); assay: cell-based or functional assay
[37] = target: CH0505TF.gly3.197 Env, Env-pseudotyped virus produced in 293S GnTI- cells (Man5-enriched) (HIV-1); assay: cell-based or functional assay
[38] = target: CH0505TF.gly3.276 Env, Env-pseudotyped virus produced in 293S GnTI- cells (Man5-enriched) (HIV-1); assay: cell-based or functional assay
[39] = target: CH0505TF.gly3.461 Env, Env-pseudotyped virus produced in 293S GnTI- cells (Man5-enriched) (HIV-1); assay: cell-based or functional assay
[40] = target: CH0505TF.gly4 Env, Env-pseudotyped virus produced in 293S GnTI- cells (Man5-enriched) (HIV-1); assay: cell-based or functional assay

| Substance | IC50 (µg/ml) in TZM-bl [4] [µg/mL] | IC50 (µg/ml) in TZM-bl [5] [µg/mL] | IC50 (µg/ml) in TZM-bl [7] [µg/mL] | IC50 (µg/ml) in TZM-bl [9] [µg/mL] | IC50 (µg/ml) in TZM-bl [11] [µg/mL] | IC50 (µg/ml) in TZM-bl [13] [µg/mL] | IC50 (µg/ml) in TZM-bl [15] [µg/mL] | ID50/IC50 in TZM-bl [17] [µg/mL] | ID50/IC50 in TZM-bl [18] [µg/mL] | ID50/IC50 in TZM-bl [19] [µg/mL] | ID50/IC50 in TZM-bl [20] [µg/mL] | ID50/IC50 in TZM-bl [21] [µg/mL] | ID50/IC50 in TZM-bl [22] [µg/mL] | IC50 (µg/ml) in TZM-bl [23] [µg/mL] | IC50 (µg/ml) in TZM-bl [24] [µg/mL] | IC50 (µg/ml) in TZM-bl [25] [µg/mL] | IC50 (µg/ml) in TZM-bl [26] [µg/mL] | IC50 (µg/ml) in TZM-bl [27] [µg/mL] | IC50 (µg/ml) in TZM-bl [28] [µg/mL] | IC50 (µg/ml) in TZM-bl [29] [µg/mL] | further results |
| --- | --- | --- | --- | --- | --- | --- | --- | --- | --- | --- | --- | --- | --- | --- | --- | --- | --- | --- | --- | --- | --- |
| CH103 lineage intermediate ancestor IA8 (antibody) | – | – | – | – | – | – | – | – | – | – | – | – | – | – | – | – | – | – | – | – | log AUC (CH505 M11 gp120 (HIV-1)): 6.2 log AUC; log AUC (CH505 M5 gp120 (HIV-1)): 0.6 log AUC; log AUC [1]: 5.5 log AUC; log AUC [2]: 3.4 log AUC; log AUC [3]: 1.6 log AUC |
| IgG1b12 (antibody) | < 0.02 | 0.98 | 0.1 | 0.68 | 0.007 | 0.011 | 0.004 | > 25 | > 25 | > 25 | > 25 | > 25 | > 25 | > 25 | > 25 | > 25 | > 25 | > 25 | > 25 | > 25 | IC50 (µg/ml) in TZM-bl [6]: 0.61 µg/mL; IC50 (µg/ml) in TZM-bl [8]: 0.22 µg/mL; IC50 (µg/ml) in TZM-bl [10]: 0.26 µg/mL; IC50 (µg/ml) in TZM-bl [12]: 0.01 µg/mL; IC50 (µg/ml) in TZM-bl [14]: 0.02 µg/mL; IC50 (µg/ml) in TZM-bl [16]: 0.001 µg/mL; IC50 (µg/ml) in TZM-bl [30]: > 25 µg/mL; IC50 (µg/ml) in TZM-bl [31]: > 25 µg/mL; IC50 (µg/ml) in TZM-bl [32]: > 25 µg/mL; ID50/IC50 in TZM-bl [33]: > 25 µg/mL; ID50/IC50 in TZM-bl [34]: > 25 µg/mL |
| PGT121 (antibody) | > 20 | > 5 | > 5 | > 5 | > 5 | > 5 | > 5 | > 5 | 3.4 | > 5 | 4.2 | > 5 | 3.4 | 2.5 | > 5 | 3.4 | > 5 | 4.2 | > 5 | 3.4 | IC50 (µg/ml) in TZM-bl [35]: > 5 µg/mL; IC50 (µg/ml) in TZM-bl [36]: > 5 µg/mL; IC50 (µg/ml) in TZM-bl [37]: > 5 µg/mL; IC50 (µg/ml) in TZM-bl [38]: > 5 µg/mL; IC50 (µg/ml) in TZM-bl [39]: > 5 µg/mL; IC50 (µg/ml) in TZM-bl [40]: > 5 µg/mL; IC50 (µg/ml) in TZM-bl [30]: > 5 µg/mL; IC50 (µg/ml) in TZM-bl [31]: > 5 µg/mL; IC50 (µg/ml) in TZM-bl [32]: > 5 µg/mL; ID50/IC50 in TZM-bl [33]: > 5 µg/mL; ID50/IC50 in TZM-bl [34]: 2.5 µg/mL |
| PGT128 (antibody) | > 10 | > 5 | > 5 | > 5 | > 5 | > 5 | > 5 | > 5 | > 5 | > 5 | > 5 | > 5 | > 5 | 4.3 | > 5 | > 5 | > 5 | > 5 | > 5 | > 5 | IC50 (µg/ml) in TZM-bl [35]: > 5 µg/mL; IC50 (µg/ml) in TZM-bl [36]: > 5 µg/mL; IC50 (µg/ml) in TZM-bl [37]: > 5 µg/mL; IC50 (µg/ml) in TZM-bl [38]: > 5 µg/mL; IC50 (µg/ml) in TZM-bl [39]: > 5 µg/mL; IC50 (µg/ml) in TZM-bl [40]: > 5 µg/mL; IC50 (µg/ml) in TZM-bl [30]: > 5 µg/mL; IC50 (µg/ml) in TZM-bl [31]: > 5 µg/mL; IC50 (µg/ml) in TZM-bl [32]: > 5 µg/mL; ID50/IC50 in TZM-bl [33]: > 5 µg/mL; ID50/IC50 in TZM-bl [34]: 4.3 µg/mL |
| PGT151 (antibody) | > 25 | 0.01 | 0.01 | 0.01 | 0.007 | 0.01 | 0.01 | 0.01 | 2.2 | 0.01 | 1.9 | 0.01 | 2.5 | 1.6 | 0.01 | 2.2 | 0.01 | 1.9 | 0.01 | 2.5 | IC50 (µg/ml) in TZM-bl [35]: > 5 µg/mL; IC50 (µg/ml) in TZM-bl [36]: > 5 µg/mL; IC50 (µg/ml) in TZM-bl [37]: > 5 µg/mL; IC50 (µg/ml) in TZM-bl [38]: > 5 µg/mL; IC50 (µg/ml) in TZM-bl [39]: > 5 µg/mL; IC50 (µg/ml) in TZM-bl [40]: 0.13 µg/mL; IC50 (µg/ml) in TZM-bl [30]: 0.01 µg/mL; IC50 (µg/ml) in TZM-bl [31]: 2.9 µg/mL; IC50 (µg/ml) in TZM-bl [32]: 0.01 µg/mL; ID50/IC50 in TZM-bl [33]: 0.01 µg/mL; ID50/IC50 in TZM-bl [34]: 1.6 µg/mL |
